The results in this text go back to patent publication US20240383953.

Data set [1] relates to T1, WR 1-3wRRK peptide (synthetic construct (human NANOG derived)).
T1 sequence: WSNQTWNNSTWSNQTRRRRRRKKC
Briefly: FP. As to conditions: given as Ka in nM; n=2.1±0.5; almost all DNA bound at 60 nM in EMSA. Background: In EMSA bound probe runs differently from free probe, usually more slowly.

Data set [2] concerns HIV TAT cell-penetrating peptide (HIV). The experiment in a line: FP. As to conditions: given as Ka in nM; n=1.1±0.1; not all DNA bound at 0.9 uM in EMSA, no FCCS bridging.
For data set [3], the system named is WR 1-4wRK peptide (synthetic construct (human NANOG derived)). Briefly: FP. As to conditions: given as Ka in nM; cooperativity n=3.3±1.2.
Data set [4] shares this test system. Briefly: EMSA. As to conditions: 50% free DNA; DNA bridging by FCCS from 1 uM.

Chain of WR 1-4wRK peptide (synthetic construct (human NANOG derived)) (chain, as listed by the source): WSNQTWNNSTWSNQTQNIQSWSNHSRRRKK

Regarding “GATA6 40 bp DNA (two NANOG cognate sites)”, the K half in data set [1] came to 180 nM; in data set [2] it was 260 nM; in data set [3], 340 nM; in data set [4], 1000 nM.
